Literature values in paper PMC4303689.

Target: His50 (UniProt position 50, KEGVVHGVATV)
Assay: NMR
Conditions: not stated (the range of values reflects different ionic strengths); free monomeric alpha-synuclein (inferred from context)

alpha-synuclein (Homo sapiens)
pKa: 6.5–6.8
